Results: publication PMC10270636
Each block holds one molecule with its values, some of them ahead of it.

Columns and labels:
Experiment in all cases: SEC; TSK-Gel G2000SWXL 7.8 x 300 mm column, Waters Alliance HPLC, detection at 220 nm; lyophilizate dissolved in water for injection and diluted, measured directly; peaks assigned as aggregates, tetramer and monomer
P00805 = tested on: P00805
[1] = biological target: Spectrila (recombinant E. coli-derived L-asparaginase) (E. coli), P00805
[2] = biological target: Onconase (E. coli-derived L-asparaginase preparation from India) (E. coli), P00805

stoichiometry N [1]: 4
B1: Spectrila (recombinant E. coli-derived L-asparaginase), P00805 23-348 (enzyme)
chain: LPNITILATGGTIAGGGDSATKSNYTVGKVGVENLVNAVPQLKDIANVKGEQVVNIGSQDMNDDVWLTLAKKINTDCDKTDGFVITHGTDTMEETAYFLDLTVKCDKPVVMVGAMRPSTSMSADGPFNLYNAVVTAADKASANRGVLVVMNDTVLDGRDVTKTNTTDVATFKSVNYGPLGYIHNGKIDYQRTPARKHTSDTPFDVSKLNELPKVGIVYNYANASDLPAKALVDAGYDGIVSAGVGNGNLYKTVFDTLATAAKTGTAVVRSSRVPTGATTQDAEVDDAKYGFVASGTLNPQKARVLLQLALTQTKDPQQIQQIFNQY
modifications: not checked

stoichiometry N [2]: 4
B2: Onconase (E. coli-derived L-asparaginase preparation from India), P00805 23-348 (enzyme)
chain: B1 chain
modifications: not checked

Second part, the molecule before the results:

Molecule: Onconase (E. coli-derived L-asparaginase preparation from India)
percent tetramer (SEC peak area) (P00805): 82.7%[*]

Molecule: Spectrila (recombinant E. coli-derived L-asparaginase)
percent tetramer (SEC peak area) (P00805): 99.4%
